In US20180209956A1, “HTS Assay for Identifying Small Molecule Inhibitors of RAD52 and Uses of Identified Small Molecule Inhibitors for Treatment and Prevention of BRCA-Deficient Malignancies” (University of Iowa Research Foundation, priority 2015, published 2018):

Columns and labels:
RAD52 [1] = biological target: T1, RAD52 (Homo sapiens, UniProt P43351); conditions: cited from earlier work
T1 sequence (P43351 1-418): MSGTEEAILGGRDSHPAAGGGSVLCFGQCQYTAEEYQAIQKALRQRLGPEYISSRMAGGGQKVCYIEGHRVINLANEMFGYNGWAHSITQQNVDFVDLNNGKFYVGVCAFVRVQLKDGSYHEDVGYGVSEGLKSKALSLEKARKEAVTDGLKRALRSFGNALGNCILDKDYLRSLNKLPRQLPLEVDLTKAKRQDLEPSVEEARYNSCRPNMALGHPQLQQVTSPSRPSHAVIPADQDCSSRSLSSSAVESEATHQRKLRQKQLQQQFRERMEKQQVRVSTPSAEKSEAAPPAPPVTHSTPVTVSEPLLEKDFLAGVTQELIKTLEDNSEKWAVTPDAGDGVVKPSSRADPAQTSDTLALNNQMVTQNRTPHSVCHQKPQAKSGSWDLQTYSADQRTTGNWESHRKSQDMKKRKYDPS

[2] = biological target: RPA (RPA70/RPA35/RPA14 heterotrimer) (UniProt P27694;P15927;P35244 P27694:1-616,P15927:1-270,P35244:1-121); experiment: FRET; 1:1 stoichiometric complex, FRET about 0.3 vs about 0.48 for free ssDNA; 30 mM Tris-acetate pH 7.5, 25 C; conditions: tags: untagged; label: Cy3 and Cy5 at the ends
RAD52 [3] = biological target: T2, RAD52 (Homo sapiens, UniProt P43351 P43351:1-418); experiment: method FRET; stoichiometric wrapped complex at about 8 nM RAD52 with 1 nM ssDNA; 30 mM Tris-acetate pH 7.5, 1 mM DTT, 0.1 mg/mL BSA, 25 C; also bound when ssDNA is RPA-coated (FRET about 0.63); conditions: tags: 6xHis; chain copies: heptameric ring per 30-mer ssDNA (stated); label: Cy3 and Cy5 at the ends
T2 sequence: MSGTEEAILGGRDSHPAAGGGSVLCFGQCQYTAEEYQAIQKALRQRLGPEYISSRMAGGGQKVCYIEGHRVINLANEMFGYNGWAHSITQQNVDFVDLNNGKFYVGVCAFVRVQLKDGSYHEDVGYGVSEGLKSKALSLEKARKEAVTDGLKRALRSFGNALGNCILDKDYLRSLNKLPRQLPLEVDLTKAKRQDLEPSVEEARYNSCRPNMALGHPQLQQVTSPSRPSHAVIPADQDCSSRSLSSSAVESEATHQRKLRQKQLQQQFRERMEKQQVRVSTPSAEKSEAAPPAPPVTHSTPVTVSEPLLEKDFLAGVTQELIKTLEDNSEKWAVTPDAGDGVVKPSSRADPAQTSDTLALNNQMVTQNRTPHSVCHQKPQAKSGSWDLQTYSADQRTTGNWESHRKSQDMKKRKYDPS
Procedure: FRET-based DNA binding and annealing assays: FRET-based ssDNA binding, dsDNA binding, and annealing assays were carried out as previously described (Grimme et al., 2010, Grimme and Spies, 2011) using Cary Eclipse spectrofluorimeter (Varian) at 25° C. in buffer containing 30 mM Tris-Acetate pH7.5, 1 mM DTT, and 0.1 mg/mL BSA. Cy3 dye was excited at 530 nm and its emission was monitored at 565 nm. Emission of Cy5 acceptor fluorophore excited through the energy transfer from Cy3 donor is monitored at 660 nm simultaneously with emission of Cy3 dye. Both the excitation and the emission slit widths were set to 10 nm.

RAD52 [4] = biological target: T2, RAD52; experiment: competition; 10 nM poly(dT)-100 fully inhibits wrapped RAD52-Cy3-dT30-Cy5 complex (100 nM RAD52, 15 nM dT30); 20 mM Hepes pH 7.5, 1 mM DTT, 0.1 mg/mL BSA; conditions: tags: 6xHis; chain copies: heptameric ring per 30-mer ssDNA (stated)

Chain of RPA (RPA70/RPA35/RPA14 heterotrimer) (P27694 whole entry, chain 1 of 3): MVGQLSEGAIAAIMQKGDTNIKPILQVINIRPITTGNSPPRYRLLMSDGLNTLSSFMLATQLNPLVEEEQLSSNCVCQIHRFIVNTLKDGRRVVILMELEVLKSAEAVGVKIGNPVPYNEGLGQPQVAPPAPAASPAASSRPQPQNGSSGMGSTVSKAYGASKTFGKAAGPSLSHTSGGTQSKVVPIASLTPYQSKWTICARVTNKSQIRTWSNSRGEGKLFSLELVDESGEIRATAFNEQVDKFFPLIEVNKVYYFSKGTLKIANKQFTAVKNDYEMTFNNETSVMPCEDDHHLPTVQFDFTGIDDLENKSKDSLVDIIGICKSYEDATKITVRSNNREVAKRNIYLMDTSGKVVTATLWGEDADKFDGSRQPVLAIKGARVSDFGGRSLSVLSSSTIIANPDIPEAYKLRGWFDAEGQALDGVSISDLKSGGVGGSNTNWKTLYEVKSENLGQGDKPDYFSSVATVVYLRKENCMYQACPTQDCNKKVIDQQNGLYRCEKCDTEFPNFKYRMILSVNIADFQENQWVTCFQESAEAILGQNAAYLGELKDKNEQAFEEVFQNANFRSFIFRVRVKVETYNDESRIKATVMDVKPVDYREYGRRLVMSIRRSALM
Chain of RPA (RPA70/RPA35/RPA14 heterotrimer) (P15927 whole entry, chain 2 of 3): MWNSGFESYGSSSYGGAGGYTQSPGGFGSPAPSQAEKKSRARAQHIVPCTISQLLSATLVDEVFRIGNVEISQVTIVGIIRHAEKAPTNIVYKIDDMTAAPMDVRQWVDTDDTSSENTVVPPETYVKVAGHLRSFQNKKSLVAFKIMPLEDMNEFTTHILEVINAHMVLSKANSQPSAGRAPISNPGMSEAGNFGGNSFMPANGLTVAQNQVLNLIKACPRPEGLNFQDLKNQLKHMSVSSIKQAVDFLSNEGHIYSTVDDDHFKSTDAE
Chain of RPA (RPA70/RPA35/RPA14 heterotrimer) (P35244 whole entry, chain 3 of 3): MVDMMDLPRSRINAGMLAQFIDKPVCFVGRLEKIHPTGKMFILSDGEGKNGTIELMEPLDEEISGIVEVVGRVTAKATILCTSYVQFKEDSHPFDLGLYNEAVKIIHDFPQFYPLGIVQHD

For `NC(Cc1cc(O)c(O)cc1O)C(=O)O` (racemic) [6-hydroxy-DL-dopa], the “Effect on supramolecular assembly of RAD52” value (RAD52 [1]) is given as “disrupts supramolecular assembly of the RAD52 protein”.

TTTTTTTTTTTTTTTTTTTTTTTTTTTTTT (ssDNA) [Cy3-dT30-Cy5]: binds [2]; binds (RAD52 [3]).

B1: Poly dT100 (ssDNA)
DNA: TTTTTTTTTTTTTTTTTTTTTTTTTTTTTTTTTTTTTTTTTTTTTTTTTTTTTTTTTTTTTTTTTTTTTTTTTTTTTTTTTTTTTTTTTTTTTTTTTTTT
modifications: [none]
B1: binds (RAD52 [4]).
